Consider 2 molecules from patent US20190233847.

Data set [1] addresses cpCas9-1250 circular permutation: residues 1251-1368, (GGS)n linker, then 1-1250 (Streptococcus pyogenes) (UniProt Q99ZW2). In words: cell_activity. The following applies: enrichment in RFP repression FACS screen, E. coli.
Data set [2] concerns the target cpCas9-1011 circular permutation: residues 1012-1368, (GGS)n linker, then 1-1011 (Streptococcus pyogenes) (UniProt Q99ZW2). In words: cell_activity. The following applies: enrichment in RFP repression FACS screen, E. coli.
Data set [3] addresses cpCas9-1042 circular permutation: residues 1043-1368, (GGS)n linker, then 1-1042 (Streptococcus pyogenes) (UniProt Q99ZW2). In words: cell_activity. The following applies: enrichment in RFP repression FACS screen, E. coli.
The target in data set [4] is cpCas9-182 circular permutation: residues 183-1368, (GGS)n linker, then 1-182 (Streptococcus pyogenes) (UniProt Q99ZW2). In words: cell_activity. The following applies: enrichment in RFP repression FACS screen, E. coli.
Data set [5] addresses cpCas9-1283 circular permutation: residues 1284-1368, (GGS)n linker, then 1-1283 (Streptococcus pyogenes) (UniProt Q99ZW2). In words: cell_activity. The following applies: enrichment in RFP repression FACS screen, E. coli.
The target of data set [6] is cpCas9-311 circular permutation: residues 312-1368, (GGS)n linker, then 1-311 (Streptococcus pyogenes) (UniProt Q99ZW2). In words: cell_activity. The following applies: enrichment in RFP repression FACS screen, E. coli.
Data set [7] concerns the target cpCas9-271 circular permutation: residues 272-1368, (GGS)n linker, then 1-271 (Streptococcus pyogenes) (UniProt Q99ZW2). In words: cell_activity. The following applies: enrichment in RFP repression FACS screen, E. coli.
The target in data set [8] is cpCas9-1017 circular permutation: residues 1018-1368, (GGS)n linker, then 1-1017 (Streptococcus pyogenes) (UniProt Q99ZW2). In words: cell_activity. The conditions noted are these: enrichment in RFP repression FACS screen, E. coli.
Data set [9] deals with cpCas9-231 circular permutation: residues 232-1368, (GGS)n linker, then 1-231 (Streptococcus pyogenes) (UniProt Q99ZW2). In words: cell_activity. The conditions noted are these: enrichment in RFP repression FACS screen, E. coli.
The target in data set [10] is cpCas9-200 circular permutation: residues 201-1368, (GGS)n linker, then 1-200 (Streptococcus pyogenes) (UniProt Q99ZW2). In words: cell_activity. The conditions noted are these: enrichment in RFP repression FACS screen, E. coli.
Data set [11] has as its target subset of circular permuted dCas9 proteins (CPs) with a TEV linker (ENLYFQ\S) between the N & C termini.

Consider “RFP-targeting guide RNA ; RFP reporter target”, for which the binding signal (log2 fold change) in data set [1] is 18.1; in data set [2] it was 17.3; in data set [3] it was 17.8; in [4], 17.1; in data set [5] it was 18; in data set [6], 15.6. Also, the binding signal (log2 fold change) in data set [7] stood at 16.7; in data set [8] it was 17; in [9], 17.2; in data set [10], 17.7.

B1: Tobacco Etch Virus (TEV) protease (protein)
chain: GESLFKGPRDYNPISSTICHLTNESDGHTTSLYGIGFGPFIITNKHLFRRNNGTLLVQSLHGVFKVKNTTTLQQHLIDGRDMIIIRMPKDFPPFPQKLKFREPQREERICLVTTNFQTKSMSSMVSDTSCTFPSSDGIFWKHWIQTKDGQCGSPLVSTRDGFIVGIHSASNFTNTNNYFTSVPKNFMELLTNQEAQQWVSGWRLNADSVLWGGHKVFMSKPEEPFQPVKEATQLMNELVYSQ
Regarding B1, the “western blot of linker cleavage” value in [11] was “the CPs were cleaved at the correct location when an active TEV protease was present in the cell”.
